Experimental data published in patent publication US20200138979A1 (REGENTS OF THE UNIVERSITY OF MICHIGAN, published 2020).
Where no end group is shown, it is not given here.

Experiments:
[1] = target: FGFR2c (fibroblast growth factor receptor 2, isoform IIIc) stably expressed on QhTERT cells (UniProt P21802); test: flow cytometry on cells overexpressing FGFR2 (same experiment as kd=68 nM, printed with more digits)
[2] = target: FGFR2c (fibroblast growth factor receptor 2, isoform IIIc) stably expressed on QhTERT cells (UniProt P21802); test: flow cytometry time course, 5 µM peptide on QhTERT cells expressing FGFR2c
[3] = target: FGFR2c (fibroblast growth factor receptor 2, isoform IIIc) stably expressed on QhTERT cells (UniProt P21802); test: flow cytometry time course, 5 µM peptide on QhTERT cells expressing FGFR2c, first order kinetics fit
[4] = target: FGFR2c (fibroblast growth factor receptor 2, isoform IIIc) stably expressed on QhTERT cells (UniProt P21802); test: flow cytometry, apparent dissociation constant on QhTERT cells expressing FGFR2c, 0-200 nM peptide, 4° C.
[5] = target: T1, recombinant FGFR2-ECD (Met1-Glu377), extracellular domain of FGFR2c (UniProt P21802 22-377, glycosylated); test: phage display biopanning (4 rounds) against immobilized recombinant FGFR2-ECD; peptide displayed on M13 phage
T1 construct: range 1-377; Bought construct; also called #10824-H08H-50, Sino Biological
T1 sequence (P21802 22-377 limits assumed): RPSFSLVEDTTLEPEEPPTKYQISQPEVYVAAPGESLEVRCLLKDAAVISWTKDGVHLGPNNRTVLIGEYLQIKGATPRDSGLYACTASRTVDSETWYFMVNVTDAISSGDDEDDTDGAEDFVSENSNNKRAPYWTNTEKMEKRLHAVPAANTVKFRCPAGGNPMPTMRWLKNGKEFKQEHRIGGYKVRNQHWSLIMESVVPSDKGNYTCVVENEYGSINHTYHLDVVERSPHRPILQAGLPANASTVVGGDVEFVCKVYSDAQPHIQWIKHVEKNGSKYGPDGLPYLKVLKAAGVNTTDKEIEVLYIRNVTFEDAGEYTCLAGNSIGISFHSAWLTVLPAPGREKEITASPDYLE
Procedure: Peptide selection was performed using a phage display library (New England Biolabs, Ph.D.-12) per manufacturer instructions. This library consists of M13 bacteriophage that expresses ˜10⁹ unique 12-amino acid sequences. 2×10¹¹ pfu consisting of 2×10⁹ unique clones with ˜100 copies each were biopanned against FGFR2-ECD immobilized in a 6-well plate at 4° C. Four rounds of biopanning were performed using a decreasing quantity (100, 80, 60, and 40 μg) of FGFR2-ECD in successive rounds to increase binding specificity. After the 4th round, 50 plaques were randomly selected for DNA preparation and sequence analysis. We used an ABI Automatic DNA Analyzer (Applied Biosystems) with primer 5′-[…] TTA GCG TAA CG-3′ (−96 gIII sequencing primer, New England Biolabs) that corresponds to the pIII gene sequence of the M13 phage.

Sequence of FGFR2c (fibroblast growth factor receptor 2, isoform IIIc) stably expressed on QhTERT cells (P21802 22-821): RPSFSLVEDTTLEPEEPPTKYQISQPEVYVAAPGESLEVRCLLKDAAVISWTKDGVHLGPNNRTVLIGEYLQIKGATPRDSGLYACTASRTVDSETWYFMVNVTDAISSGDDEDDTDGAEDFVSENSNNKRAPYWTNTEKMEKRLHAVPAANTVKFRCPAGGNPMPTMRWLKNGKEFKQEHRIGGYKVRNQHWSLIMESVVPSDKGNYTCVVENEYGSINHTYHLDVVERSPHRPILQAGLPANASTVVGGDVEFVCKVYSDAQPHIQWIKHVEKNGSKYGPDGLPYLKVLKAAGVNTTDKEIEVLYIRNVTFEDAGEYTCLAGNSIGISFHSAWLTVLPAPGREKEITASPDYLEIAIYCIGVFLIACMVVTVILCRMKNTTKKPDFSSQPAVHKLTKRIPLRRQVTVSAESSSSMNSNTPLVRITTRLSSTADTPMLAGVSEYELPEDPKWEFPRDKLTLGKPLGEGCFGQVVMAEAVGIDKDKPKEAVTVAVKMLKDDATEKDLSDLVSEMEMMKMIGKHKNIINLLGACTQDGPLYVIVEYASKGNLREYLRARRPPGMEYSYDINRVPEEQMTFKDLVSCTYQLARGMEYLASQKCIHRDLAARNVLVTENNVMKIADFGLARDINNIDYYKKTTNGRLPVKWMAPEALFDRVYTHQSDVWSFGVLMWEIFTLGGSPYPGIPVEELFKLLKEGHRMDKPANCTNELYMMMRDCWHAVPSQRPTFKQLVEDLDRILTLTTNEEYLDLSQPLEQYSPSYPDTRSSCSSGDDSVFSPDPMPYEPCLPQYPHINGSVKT

Row | Binder | Kd [1] [µM] | time scale for onset of binding [2] [min] | apparent association time constant k [3] [min⁻¹] | Kd [4] [µM] | binding result [5]
1 | SRRPASFRTAREGGGSK(Cy5.5)-NH2 [SRR*-Cy5.5 (peptide … with Cy5.5 attached via a C-terminal GGGSK linker)] | 0.0679 | 6.2 | 0.16 | 0.068 | 
2 | SRRPASFRTARE (also called unlabeled SRR*; SSR peptide) [SRR* peptide SRRPASFRTARE, unlabeled] |  |  |  |  | binds
